Reference: patent US20230061973A1 (LARIMAR THERAPEUTICS, published 2023)

These binders were tested against T1, exemplary TAT frataxin fusion molecule (HIV-1, UniProt Q16595 1-210) (assay: PK sandwich ELISA in human plasma, antibody as capture, HRP anti-frataxin mAb detection).
T1 construct: in the bridging assays biotinylated and sulfotagged forms were used; also called TAT-FXN fusion molecule; TAT FXN fusion molecule
T1 sequence: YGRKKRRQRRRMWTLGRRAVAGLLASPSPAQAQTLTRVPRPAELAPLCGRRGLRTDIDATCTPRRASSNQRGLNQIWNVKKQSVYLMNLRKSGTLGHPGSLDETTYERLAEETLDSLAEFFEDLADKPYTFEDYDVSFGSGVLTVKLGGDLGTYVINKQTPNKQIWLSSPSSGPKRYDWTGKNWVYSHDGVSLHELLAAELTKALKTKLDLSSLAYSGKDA

Binder | Mean OD at plasma conc. 0.400 ng/mL | Mean OD at plasma conc. 0.800 ng/mL | Mean OD at plasma conc. 1.60 ng/mL | Mean OD at plasma conc. 3.20 ng/mL | Mean OD at plasma conc. 6.40 ng/mL | Mean OD at plasma conc. 12.8 ng/mL | Mean OD at plasma conc. 25.6 ng/mL | Mean OD at plasma conc. 51.2 ng/mL | S/N at plasma conc. 0.400 ng/mL | S/N at plasma conc. 0.800 ng/mL
antibody 10-9 (antibody, V domains shown, Rabbit monoclonal) VH: QSLEESGGDLVKPGASLTLTCTASGFSFSSGYWICWVRQAPGKGLEWIACIYTGDGDTSYASWAKGRFTISKTSSTTVTLQMTSLTVADTAIYFCARDTSGTFYYNLWGPGTLVAVSS VL: AAVLTQTPSSVSAAVGGTVTISCQSSESVYKTNYLSWFQKKPGQPPKLLIYDASTLASGVPSRFSGSGSGTQFTLTISDLECDDAATYYCAGGYSDDINAFGGGTEVEIK | 0.077 OD | 0.1 OD | 0.14 OD | 0.229 OD | 0.437 OD | 0.781 OD | 1.49 OD | 2.77 OD | 1.6 | 2.1
antibody 12-8 (antibody, V domains shown, Rabbit monoclonal) VH: QSLEESGGDLVKPGASLTLTCTASGFSFSSGYWICWVRQAPGKGLEWIACIYTGDGDTSYASWAKGRFTISKTSSTTVTLQMTSLTVADTAIYFCARDTSGTFYYNLWGPGTLVAVSS VL: AAVLTQTPSSVSAAVGGTVTISCQSSESVYKTNYLSWFQKKPGQPPKLLIYDASTLASGVPSRFSGSGSGTQFTLTISDLECDDAATYYCAGGYSDDINAFGGGTEVEIK | 0.07 OD | 0.087 OD | 0.129 OD | 0.225 OD | 0.409 OD | 0.75 OD | 1.45 OD | 2.67 OD | 1.5 | 1.9
antibody 10-4 (antibody, V domains shown, Rabbit monoclonal) VH: QSLEESGGDLVKPGASLTLTCTASGFSFSSGYWICWVRQAPGKGLEWIACIYTGDGDTSYASWAKGRFTISKTSSTTVTLQMTSLTVADTAIYFCARDTSGTFYYNLWGPGTLVAVSS VL: DVVMTQTPSPVSAPVGGTVTINCQASQNIYSNLAWYQQKPGQPPKLLIYGASTLASGVSSRFKGSRSGTEFTLTISDLECADAATYYCQSYVYSSSTADTFGGGTKVVVE | 0.076 OD | 0.092 OD | 0.14 OD | 0.229 OD | 0.411 OD | 0.757 OD | 1.41 OD | 2.7 OD | 1.4 | 1.6
antibody 12-3 (antibody, V domains shown, Rabbit monoclonal) VH: QSLEESGGDLVKPGASLTLTCTASGFSFSSGYWICWVRQAPGKGLEWIACIYTGDGDTSYASWAKGRFTISKTSSTTVTLQMTSLTVADTAIYFCARDTSGTFYYNLWGPGTLVAVSS VL: DVVMTQTPSPVSAPVGGTVTINCQASQNIYSNLAWYQQKPGQPPKLLIYGASTLASGVSSRFKGSRSGTEFTLTISDLECADAATYYCQSYVYSSSTADTFGGGTKVVVE | 0.067 OD | 0.091 OD | 0.133 OD | 0.22 OD | 0.416 OD | 0.767 OD | 1.45 OD | 2.78 OD | 1.6 | 2.1
antibody 12-1 (antibody, V domains shown, Rabbit monoclonal) VH: QSLEESGGDLVKPGASLTLTCTASGFSFSSGYWICWVRQAPGKGLEWIACIYTGDGDTSYASWAKGRFTISKTSSTTVTLQMTSLTVADTAIYFCARDTSGTFYYNLWGPGTLVAVSS VL: DVVMTQTPSPVSAPVGGTVTINCQASQNIYSNLAWYQQKPGQPPKLLIYGASTLASGVSSRFKGSRSGTEFTLTISDLECADAATYYCQSYVYSSSTADTFGGGTKVVVE | 0.067 OD | 0.088 OD | 0.137 OD | 0.229 OD | 0.433 OD | 0.795 OD | 1.44 OD | 2.67 OD | 1.4 | 1.9
antibody 10-5 (antibody, V domains shown, Rabbit monoclonal) VH: QSLEESGGDLVKPGASLTLTCTASGFSFSSGYWICWVRQAPGKGLEWIACIYTGDGDTSYASWAKGRFTISKTSSTTVTLQMTSLTVADTAIYFCARDTSGTFYYNLWGPGTLVAVSS VL: DVVMTQTPSPVSAPVGGTVTINCQASQNIYSNLAWYQQKPGQPPKLLIYGASTLASGVSSRFKGSRSGTEFTLTISDLECADAATYYCQSYVYSSSTADTFGGGTKVVVE | 0.071 OD | 0.09 OD | 0.135 OD | 0.23 OD | 0.447 OD | 0.819 OD | 1.53 OD | 2.86 OD | 1.5 | 1.9
antibody 12-10 (antibody, V domains shown, Rabbit monoclonal) VH: QSLEESGGDLVKPGASLTLTCTASGFSFSSGYWICWVRQAPGKGLEWIACIYTGDGDTSYASWAKGRFTISKTSSTTVTLQMTSLTVADTAIYFCARDTSGTFYYNLWGPGTLVAVSS VL: AAVLTQTPSSVSAAVGGTVTISCQSSESVYKTNYLSWFQKKPGQPPKLLIYDASTLASGVPSRFSGSGSGTQFTLTISDLECDDAATYYCAGGYSDDINAFGGGTEVEIK | 0.067 OD | 0.089 OD | 0.141 OD | 0.242 OD | 0.447 OD | 0.818 OD | 1.51 OD | 2.79 OD | 1.4 | 1.8
antibody 10-1 (antibody, V domains shown, Rabbit monoclonal) VH: QSLEESGGDLVKPGASLTLTCTASGFSFSSGYWICWVRQAPGKGLEWIACIYTGDGDTSYASWAKGRFTISKTSSTTVTLQMTSLTVADTAIYFCARDTSGTFYYNLWGPGTLVAVSS VL: ELVLTQTASSVSAAVGGTVTISCQSSESVYKTNYLSWFQKKPGQPPKLLIYDASTLASGVPSRFSGSGSGTQFTLTISDLECDDAATYYCAGGYSDDINAFGGGTEVVVK | 0.07 OD | 0.093 OD | 0.14 OD | 0.228 OD | 0.43 OD | – | 1.44 OD | 2.66 OD | 1.5 | 2
antibody 10-12 (antibody, V domains shown, Rabbit monoclonal) VH: QSLEESGGDLVKPGASLTLTCTASGFSFSSGYWICWVRQAPGKGLEWIACIYTGDGDTSYASWAKGRFTISKTSSTTVTLQMTSLTVADTAIYFCARDTSGTFYYNLWGPGTLVAVSS VL: ELVLTQTASSVSAAVGGTVTISCQSSESVYKTNYLSWFQKKPGQPPKLLIYDASTLASGVPSRFSGSGSGTQFTLTISDLECDDAATYYCAGGYSDDINAFGGGTEVVVK | 0.073 OD | 0.092 OD | 0.136 OD | 0.23 OD | 0.417 OD | 0.778 OD | 1.4 OD | 2.7 OD | 1.6 | 2

Same assay, conditions: not given

Binder | S/N at plasma conc. 1.60 ng/mL | S/N at plasma conc. 3.20 ng/mL | S/N at plasma conc. 6.40 ng/mL | S/N at plasma conc. 12.8 ng/mL | S/N at plasma conc. 25.6 ng/mL | S/N at plasma conc. 51.2 ng/mL
antibody 10-9 (antibody, V domains shown, Rabbit monoclonal) VH: QSLEESGGDLVKPGASLTLTCTASGFSFSSGYWICWVRQAPGKGLEWIACIYTGDGDTSYASWAKGRFTISKTSSTTVTLQMTSLTVADTAIYFCARDTSGTFYYNLWGPGTLVAVSS VL: AAVLTQTPSSVSAAVGGTVTISCQSSESVYKTNYLSWFQKKPGQPPKLLIYDASTLASGVPSRFSGSGSGTQFTLTISDLECDDAATYYCAGGYSDDINAFGGGTEVEIK | 3 | 4.9 | 9.3 | 16.6 | 31.7 | 59
antibody 12-8 (antibody, V domains shown, Rabbit monoclonal) VH: QSLEESGGDLVKPGASLTLTCTASGFSFSSGYWICWVRQAPGKGLEWIACIYTGDGDTSYASWAKGRFTISKTSSTTVTLQMTSLTVADTAIYFCARDTSGTFYYNLWGPGTLVAVSS VL: AAVLTQTPSSVSAAVGGTVTISCQSSESVYKTNYLSWFQKKPGQPPKLLIYDASTLASGVPSRFSGSGSGTQFTLTISDLECDDAATYYCAGGYSDDINAFGGGTEVEIK | 2.7 | 4.8 | 8.7 | 16 | 30.9 | 56.9
antibody 10-4 (antibody, V domains shown, Rabbit monoclonal) VH: QSLEESGGDLVKPGASLTLTCTASGFSFSSGYWICWVRQAPGKGLEWIACIYTGDGDTSYASWAKGRFTISKTSSTTVTLQMTSLTVADTAIYFCARDTSGTFYYNLWGPGTLVAVSS VL: DVVMTQTPSPVSAPVGGTVTINCQASQNIYSNLAWYQQKPGQPPKLLIYGASTLASGVSSRFKGSRSGTEFTLTISDLECADAATYYCQSYVYSSSTADTFGGGTKVVVE | 2.5 | 4.1 | 7.3 | 13.5 | 25.2 | 48.3
antibody 12-3 (antibody, V domains shown, Rabbit monoclonal) VH: QSLEESGGDLVKPGASLTLTCTASGFSFSSGYWICWVRQAPGKGLEWIACIYTGDGDTSYASWAKGRFTISKTSSTTVTLQMTSLTVADTAIYFCARDTSGTFYYNLWGPGTLVAVSS VL: DVVMTQTPSPVSAPVGGTVTINCQASQNIYSNLAWYQQKPGQPPKLLIYGASTLASGVSSRFKGSRSGTEFTLTISDLECADAATYYCQSYVYSSSTADTFGGGTKVVVE | 3.1 | 5.1 | 9.7 | 17.8 | 33.7 | 64.6
antibody 12-1 (antibody, V domains shown, Rabbit monoclonal) VH: QSLEESGGDLVKPGASLTLTCTASGFSFSSGYWICWVRQAPGKGLEWIACIYTGDGDTSYASWAKGRFTISKTSSTTVTLQMTSLTVADTAIYFCARDTSGTFYYNLWGPGTLVAVSS VL: DVVMTQTPSPVSAPVGGTVTINCQASQNIYSNLAWYQQKPGQPPKLLIYGASTLASGVSSRFKGSRSGTEFTLTISDLECADAATYYCQSYVYSSSTADTFGGGTKVVVE | 2.9 | 4.9 | 9.2 | 16.9 | 30.7 | 56.8
antibody 10-5 (antibody, V domains shown, Rabbit monoclonal) VH: QSLEESGGDLVKPGASLTLTCTASGFSFSSGYWICWVRQAPGKGLEWIACIYTGDGDTSYASWAKGRFTISKTSSTTVTLQMTSLTVADTAIYFCARDTSGTFYYNLWGPGTLVAVSS VL: DVVMTQTPSPVSAPVGGTVTINCQASQNIYSNLAWYQQKPGQPPKLLIYGASTLASGVSSRFKGSRSGTEFTLTISDLECADAATYYCQSYVYSSSTADTFGGGTKVVVE | 2.9 | 4.9 | 9.5 | 17.4 | 32.5 | 60.8
antibody 12-10 (antibody, V domains shown, Rabbit monoclonal) VH: QSLEESGGDLVKPGASLTLTCTASGFSFSSGYWICWVRQAPGKGLEWIACIYTGDGDTSYASWAKGRFTISKTSSTTVTLQMTSLTVADTAIYFCARDTSGTFYYNLWGPGTLVAVSS VL: AAVLTQTPSSVSAAVGGTVTISCQSSESVYKTNYLSWFQKKPGQPPKLLIYDASTLASGVPSRFSGSGSGTQFTLTISDLECDDAATYYCAGGYSDDINAFGGGTEVEIK | 2.9 | 4.9 | 9.1 | 16.7 | 30.8 | 57
antibody 10-1 (antibody, V domains shown, Rabbit monoclonal) VH: QSLEESGGDLVKPGASLTLTCTASGFSFSSGYWICWVRQAPGKGLEWIACIYTGDGDTSYASWAKGRFTISKTSSTTVTLQMTSLTVADTAIYFCARDTSGTFYYNLWGPGTLVAVSS VL: ELVLTQTASSVSAAVGGTVTISCQSSESVYKTNYLSWFQKKPGQPPKLLIYDASTLASGVPSRFSGSGSGTQFTLTISDLECDDAATYYCAGGYSDDINAFGGGTEVVVK | 3 | 5 | 9.3 | 17.1 | 31.3 | 57.7
antibody 10-12 (antibody, V domains shown, Rabbit monoclonal) VH: QSLEESGGDLVKPGASLTLTCTASGFSFSSGYWICWVRQAPGKGLEWIACIYTGDGDTSYASWAKGRFTISKTSSTTVTLQMTSLTVADTAIYFCARDTSGTFYYNLWGPGTLVAVSS VL: ELVLTQTASSVSAAVGGTVTISCQSSESVYKTNYLSWFQKKPGQPPKLLIYDASTLASGVPSRFSGSGSGTQFTLTISDLECDDAATYYCAGGYSDDINAFGGGTEVVVK | 3 | 5.1 | 9.3 | 17.3 | 31.2 | 60
